Assay [1] addresses L-rhamnose isomerase (L-RIM) (Chloroflexus sp. origin (hot spring metagenome)). Nature of the assay: SEC; Superdex 200 increase 10/300 GL, 50 mM Tris-Cl pH 7.0, 150 mM NaCl, 0.5 mL/min; calibrated with ovalbumin, conalbumin, aldolase and ferritin.
Assay [2] has the same target. Kind of assay: native gel or EMSA; 10% Native PAGE of purified L-RIM, Coomassie stained; native mass against a marker.

For orientation: stoichiometry N means a count of units in the complex or per binding partner.

L-rhamnose isomerase (L-RIM) (enzyme): the stoichiometry N in assay [1] and in assay [2] was 4 each time.

These data come from article PMC10987364.
